Experimental data as given in article PMC6155255, “Synthetic Peptides Derived from Bovine Lactoferricin Exhibit Antimicrobial Activity against E. coli ATCC 11775, S. maltophilia ATCC 13636 and S. enteritidis ATCC 13076” (Molecules : A Journal of Synthetic Chemistry and Natural …, 2017).

Key:
E. coli ATCC 11775 [1] = format: cell-based, Escherichia coli; conditions: E. coli ATCC 11775, value in brackets (µM), 24 h at 37 °C, performed twice
Procedure: (§1) The MIC and MBC were determined using a microdilution assay. In brief, bacterial strains were incubated for 18 to 24 h at 37 °C in an MH broth until an optical density of 0.15 to 0.30 (620 nm) was obtained. 90 µL of Mueller-Hinton broth (MHB) were mixed with 90 µL of peptide (440 µg/mL), and using a 96-well microtiter plate peptide, serial dilution (200, 100, 50, 25, 12.5, and 6.2 µg/mL) was performed. 10 µL of inoculum (2 × 10^6 CFU/mL) was added to each well. Final volume in each well was 100 µL. Then they were incubated for 24 h at 37 °C; and the absorbance at 620 nm was measured using an Asys Expert Plus ELISA reader. To determine the MBC, an aliquot was taken from each well and was spread onto a MHA plate. After 24 h at 37 °C, the CFU/mL was determined. Each of these tests was performed twice.

[2] = system: S. maltophilia ATCC 13636; format: cell-based, Stenotrophomonas maltophilia; conditions: S. maltophilia ATCC 13636, value in brackets (µM), 24 h at 37 °C, performed twice
Procedure: as §1

[3] = system: S. enteritidis ATCC 13076; format: cell-based, Salmonella enteritidis; conditions: S. enteritidis ATCC 13076, value in brackets (µM), 24 h at 37 °C, performed twice
Procedure: as §1

E. coli ATCC 11775 [4] = format: cell-based, Escherichia coli; conditions: 200 µg/well, 8 mm wells in Mueller-Hinton agar, 48 h at 37 °C
Procedure: (§2) These tests were carried out following the methodology reported in [36]. Briefly, an inoculum aliquot (200 µL; 2 × 10^6 CFU/mL) was placed on Mueller-Hinton (MH) Agar plates, mixed, and allowed to solidify. Wells were drilled using a punch of 8 mm, and then each hollow was filled with 100 µL of peptide (2000 µg/mL). Incubation for 48 h at 37 °C was then performed. As a non-growth control, ciprofloxacin 1.25 µg/mL was used for all tested strains. Sterile water was used as a growth control.

[5] = system: S. maltophilia ATCC 13636; format: cell-based, Stenotrophomonas maltophilia; conditions: 200 µg/well, 8 mm wells in Mueller-Hinton agar, 48 h at 37 °C
Procedure: as §2

[6] = system: S. enteritidis ATCC 13076; format: cell-based, Salmonella enteritidis; conditions: 200 µg/well, 8 mm wells in Mueller-Hinton agar, 48 h at 37 °C
Procedure: as §2

[7] = system: various strains of E. coli (0111, L361, ATCC 25922, wild strain, and IID-861); conditions: various strains of E. coli (0111, L361, ATCC 25922, wild strain, IID-861); cited from earlier work
Procedure: For BLF, a Minimum Inhibitory Concentration (MIC) and Minimum Bactericidal Concentration (MBC) larger than 200 µg/mL against the evaluated strains were found (Table 1), implying that high concentrations of the protein are required to achieve antibacterial activity. […] Furthermore, its purification is a long and expensive process.

[8] = microdilution, Mueller-Hinton broth

B1: BLF: Bovine lactoferrin, 703 amino acids, 80 kDa glycoprotein; obtained from Sigma-Aldrich (protein, UniProt P24627 20-708, looked up)
Lactotransferrin: APRKNVRWCTISQPEWFKCRRWQWRMKKLGAPSITCVRRAFALECIRAIAEKKADAVTLDGGMVFEAGRDPYKLRPVAAEIYGTKESPQTHYYAVAVVKKGSNFQLDQLQGRKSCHTGLGRSAGWIIPMGILRPYLSWTESLEPLQGAVAKFFSASCVPCIDRQAYPNLCQLCKGEGENQCACSSREPYFGYSGAFKCLQDGAGDVAFVKETTVFENLPEKADRDQYELLCLNNSRAPVDAFKECHLAQVPSHAVVARSVDGKEDLIWKLLSKAQEKFGKNKSRSFQLFGSPPGQRDLLFKDSALGFLRIPSKVDSALYLGSRYLTTLKNLRETAEEVKARYTRVVWCAVGPEEQKKCQQWSQQSGQNVTCATASTTDDCIVLVLKGEADALNLDGGYIYTAGKCGLVPVLAENRKSSKHSSLDCVLRPTEGYLAVAVVKKANEGLTWNSLKDKKSCHTAVDRTAGWNIPMGLIVNQTGSCAFDEFFSQSCAPGADPKSRLCALCAGDDQGLDKCVPNSKEKYYGYTGAFRCLAEDVGDVAFVKNDTVWENTNGESTADWAKNLNREDFRLLCLDGTRKPVTEAQSCHLAVAPNHAVVSRSDRAAHVKQVLLHQQALFGKNGKNCPDKFCLFKSETKNLLFNDNTECLAKLGGRPTYEEYLGTEYVTAIANLKKCSTSPLLEACAFLTR
Q: For B1, which MBC (E. coli ATCC 11775 [1]; aliquot spread on MHA plate) is on record?
A: > 2.5 µM

Q: What about the MIC (E. coli ATCC 11775 [1]; [8]) of the same molecule?
A: > 2.5 µM

Q: And the MBC ([2]; aliquot spread on MHA plate)?
A: > 2.5 µM

Q: What about the MIC [2, 8] of the same molecule?
A: > 2.5 µM

Q: What about the MBC ([3]; aliquot spread on MHA plate) of the same molecule?
A: > 2.5 µM

Q: And the MIC [3, 8]?
A: > 2.5 µM

Q: And the inhibition halo (E. coli ATCC 11775 [4])?
A: ~ 9 mm

Q: And the inhibition halo [5]?
A: ~ 9 mm

Q: What about the inhibition halo [6] of the same molecule?
A: ~ 9 mm

Q: What about the “BLF concentration required for exhibiting an antibacterial effect” value [7] of the same molecule?
A: greater than 200 µg/mL
